# Measured values as given in patent publication US20210403601A1 (FAPON BIOTECH, published 2021).
# Target: T1, Taq DNA polymerase (Thermus aquaticus, UniProt P19821 1-832)
# T1 construct: also called Taq enzyme; Taq DNA enzyme
# Experiment: AMC sensor, antibody immobilised
# T1 sequence (P19821 whole entry): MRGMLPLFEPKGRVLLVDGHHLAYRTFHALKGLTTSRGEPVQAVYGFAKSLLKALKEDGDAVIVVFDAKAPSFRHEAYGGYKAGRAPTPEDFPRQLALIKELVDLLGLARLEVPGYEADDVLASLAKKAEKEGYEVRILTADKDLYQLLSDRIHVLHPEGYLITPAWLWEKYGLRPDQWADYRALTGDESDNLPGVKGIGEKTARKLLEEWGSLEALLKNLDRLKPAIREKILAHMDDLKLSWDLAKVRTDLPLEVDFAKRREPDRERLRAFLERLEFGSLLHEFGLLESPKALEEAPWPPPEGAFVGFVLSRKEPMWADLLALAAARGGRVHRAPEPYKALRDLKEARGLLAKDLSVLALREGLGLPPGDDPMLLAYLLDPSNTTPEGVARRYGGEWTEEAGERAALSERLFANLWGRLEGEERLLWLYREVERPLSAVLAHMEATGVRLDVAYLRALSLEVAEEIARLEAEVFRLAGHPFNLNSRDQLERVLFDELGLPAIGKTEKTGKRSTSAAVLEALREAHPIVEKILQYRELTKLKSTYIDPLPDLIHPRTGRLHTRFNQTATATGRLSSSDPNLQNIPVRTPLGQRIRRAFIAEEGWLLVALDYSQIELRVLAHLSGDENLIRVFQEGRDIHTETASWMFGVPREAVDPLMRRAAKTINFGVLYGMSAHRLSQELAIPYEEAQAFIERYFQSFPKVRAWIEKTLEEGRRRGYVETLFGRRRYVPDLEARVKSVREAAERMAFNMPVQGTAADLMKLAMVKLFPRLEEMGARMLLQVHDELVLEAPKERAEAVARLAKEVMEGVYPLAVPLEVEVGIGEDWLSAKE
Binder,Kd,koff,kon
"Mutation 1-33 (antibody, V domains shown, Mutation 1 background; CDRs built) VH: QVQLQQPGAELVKPGASVRLSCQTSVETFSTYYIYWVKQRPGEGLEWIGGINPTSGGPVFNEKFKSKATLTVDTSSSTAYMQLSSLTSVDSAVYYCTRSLLRRGYYFDYWGQGTALTVSS VL: DIQMTQTTSSLSASLGDRVTISCRASQDINNYLNWYQQKPDGTIKLLIYYTSRLQSGLPSRFSGSGSGTDYSLTIANLEQEDIATYFCQQDDTLPLTFGAGTKVELKR",0.926 nM,3.94e-05 s⁻¹,42600 M⁻¹ s⁻¹
"Mutation 1-45 (antibody, V domains shown, Mutation 1 background; CDRs built) VH: QVQLQQPGAELVKPGASVRLSCQTSVNTFTTYYIYWVKQRPGEGLEWIGGINPTSGGPVFNEKFKSKATLTVDTSSSTAYMQLSSLTSVDSAVYYCTRSILRRGYYFDYWGQGTALTVSS VL: DIQMTQTTSSLSASLGDRVTISCRASQDINNYLNWYQQKPDGTIKLLIYYTSRLNSGVPSRFSGSGSGTDYSLTIANLEQEDIATYFCQQDDTIPLTFGAGTKVELKR",0.0582 nM,3.07e-06 s⁻¹,52600 M⁻¹ s⁻¹
"Mutation 1-41 (antibody, V domains shown, Mutation 1 background; CDRs built) VH: QVQLQQPGAELVKPGASVRLSCQTSVDTFTTYYIYWVKQRPGEGLEWIGGVNPTSNPVFNEKFKSKATLTVDTSSSTAYMQLSSLTSVDSAVYYCTRSVIRRGYYFDYWGQGTALTVSS VL: DIQMTQTTSSLSASLGDRVTISCRASQDINNYINWYQQKPDGTIKLLIYYTSRLNSGVPSRFSGSGSGTDYSLTIANLEQEDIATYFCQQDDTVPVTFGAGTKVELKR",0.297 nM,9.82e-06 s⁻¹,33100 M⁻¹ s⁻¹
"Mutation 1-58 (antibody, V domains shown, Mutation 1 background; CDRs built) VH: QVQLQQPGAELVKPGASVRLSCQTSVETFTTYYIYWVKQRPGEGLEWIGGINPTSNPVFNEKFKSKATLTVDTSSSTAYMQLSSLTSVDSAVYYCTRSVVRRGYYFDYWGQGTALTVSS VL: DIQMTQTTSSLSASLGDRVTISCRASQDIQNYINWYQQKPDGTIKLLIYYTSRLQSGIPSRFSGSGSGTDYSLTIANLEQEDIATYFCQQDDTVPITFGAGTKVELKR",0.178 nM,1.34e-05 s⁻¹,75000 M⁻¹ s⁻¹
"Mutation 1-51 (antibody, V domains shown, Mutation 1 background; CDRs built) VH: QVQLQQPGAELVKPGASVRLSCQTSVNTFTTYYIYWVKQRPGEGLEWIGGINPTSGGPVFNEKFKSKATLTVDTSSSTAYMQLSSLTSVDSAVYYCTRSLLRRGYYFDYWGQGTALTVSS VL: DIQMTQTTSSLSASLGDRVTISCRASQDINNYLNWYQQKPDGTIKLLIYYTSRLHSGVPSRFSGSGSGTDYSLTIANLEQEDIATYFCQQDDTLPLTFGAGTKVELKR",0.384 nM,3.77e-05 s⁻¹,98300 M⁻¹ s⁻¹
"Mutation 1-35 (antibody, V domains shown, Mutation 1 background; CDRs built) VH: QVQLQQPGAELVKPGASVRLSCQTSVDTFTTYYIYWVKQRPGEGLEWIGGVNPTSNPVFNEKFKSKATLTVDTSSSTAYMQLSSLTSVDSAVYYCTRSLIRRGYYFDYWGQGTALTVSS VL: DIQMTQTTSSLSASLGDRVTISCRASQDINNYINWYQQKPDGTIKLLIYYTSRLNSGLPSRFSGSGSGTDYSLTIANLEQEDIATYFCQQDDTLPVTFGAGTKVELKR",0.706 nM,3.7e-05 s⁻¹,52400 M⁻¹ s⁻¹
"Mutation 1-38 (antibody, V domains shown, Mutation 1 background; CDRs built) VH: QVQLQQPGAELVKPGASVRLSCQTSVNTFSTYYIYWVKQRPGEGLEWIGGVNPTSGGPVFNEKFKSKATLTVDTSSSTAYMQLSSLTSVDSAVYYCTRSIIRRGYYFDYWGQGTALTVSS VL: DIQMTQTTSSLSASLGDRVTISCRASQDIQNYLNWYQQKPDGTIKLLIYYTSRLNSGIPSRFSGSGSGTDYSLTIANLEQEDIATYFCQQDDTIPLTFGAGTKVELKR",0.106 nM,3.32e-06 s⁻¹,31400 M⁻¹ s⁻¹
"Mutation 1-53 (antibody, V domains shown, Mutation 1 background; CDRs built) VH: QVQLQQPGAELVKPGASVRLSCQTSVNTFSTYYIYWVKQRPGEGLEWIGGINPTSNPVFNEKFKSKATLTVDTSSSTAYMQLSSLTSVDSAVYYCTRSLIRRGYYFDYWGQGTALTVSS VL: DIQMTQTTSSLSASLGDRVTISCRASQDINNYINWYQQKPDGTIKLLIYYTSRLHSGLPSRFSGSGSGTDYSLTIANLEQEDIATYFCQQDDTLPVTFGAGTKVELKR",0.384 nM,3.8e-05 s⁻¹,99000 M⁻¹ s⁻¹
"Mutation 1-55 (antibody, V domains shown, Mutation 1 background; CDRs built) VH: QVQLQQPGAELVKPGASVRLSCQTSVDTFSTYYIYWVKQRPGEGLEWIGGVNPTSGGPVFNEKFKSKATLTVDTSSSTAYMQLSSLTSVDSAVYYCTRSIVRRGYYFDYWGQGTALTVSS VL: DIQMTQTTSSLSASLGDRVTISCRASQDINNYVNWYQQKPDGTIKLLIYYTSRLNSGIPSRFSGSGSGTDYSLTIANLEQEDIATYFCQQDDTIPITFGAGTKVELKR",0.173 nM,1.12e-05 s⁻¹,64400 M⁻¹ s⁻¹
"Mutation 1-49 (antibody, V domains shown, Mutation 1 background; CDRs built) VH: QVQLQQPGAELVKPGASVRLSCQTSVETFTTYYIYWVKQRPGEGLEWIGGLNPTSNPVFNEKFKSKATLTVDTSSSTAYMQLSSLTSVDSAVYYCTRSVVRRGYYFDYWGQGTALTVSS VL: DIQMTQTTSSLSASLGDRVTISCRASQDINNYVNWYQQKPDGTIKLLIYYTSRLQSGIPSRFSGSGSGTDYSLTIANLEQEDIATYFCQQDDTVPITFGAGTKVELKR",0.198 nM,1.71e-05 s⁻¹,86100 M⁻¹ s⁻¹
"Mutation 1-56 (antibody, V domains shown, Mutation 1 background; CDRs built) VH: QVQLQQPGAELVKPGASVRLSCQTSVDTFTTYYIYWVKQRPGEGLEWIGGINPTSGGPVFNEKFKSKATLTVDTSSSTAYMQLSSLTSVDSAVYYCTRSIIRRGYYFDYWGQGTALTVSS VL: DIQMTQTTSSLSASLGDRVTISCRASQDIQNYLNWYQQKPDGTIKLLIYYTSRLNSGLPSRFSGSGSGTDYSLTIANLEQEDIATYFCQQDDTIPLTFGAGTKVELKR",0.914 nM,3.79e-05 s⁻¹,41500 M⁻¹ s⁻¹
"Mutation 1-44 (antibody, V domains shown, Mutation 1 background; CDRs built) VH: QVQLQQPGAELVKPGASVRLSCQTSVNTFSTYYIYWVKQRPGEGLEWIGGVNPTSGGPVFNEKFKSKATLTVDTSSSTAYMQLSSLTSVDSAVYYCTRSLIRRGYYFDYWGQGTALTVSS VL: DIQMTQTTSSLSASLGDRVTISCRASQDIQNYLNWYQQKPDGTIKLLIYYTSRLNSGLPSRFSGSGSGTDYSLTIANLEQEDIATYFCQQDDTLPVTFGAGTKVELKR",0.0133 nM,4.9e-06 s⁻¹,369000 M⁻¹ s⁻¹
"Mutation 1-37 (antibody, V domains shown, Mutation 1 background; CDRs built) VH: QVQLQQPGAELVKPGASVRLSCQTSVETFTTYYIYWVKQRPGEGLEWIGGLNPTSNPVFNEKFKSKATLTVDTSSSTAYMQLSSLTSVDSAVYYCTRSIVRRGYYFDYWGQGTALTVSS VL: DIQMTQTTSSLSASLGDRVTISCRASQDINNYVNWYQQKPDGTIKLLIYYTSRLHSGIPSRFSGSGSGTDYSLTIANLEQEDIATYFCQQDDTIPITFGAGTKVELKR",0.382 nM,2.68e-05 s⁻¹,70200 M⁻¹ s⁻¹
"Mutation 1-43 (antibody, V domains shown, Mutation 1 background; CDRs built) VH: QVQLQQPGAELVKPGASVRLSCQTSVETFTTYYIYWVKQRPGEGLEWIGGLNPTSNPVFNEKFKSKATLTVDTSSSTAYMQLSSLTSVDSAVYYCTRSLVRRGYYFDYWGQGTALTVSS VL: DIQMTQTTSSLSASLGDRVTISCRASQDINNYVNWYQQKPDGTIKLLIYYTSRLHSGLPSRFSGSGSGTDYSLTIANLEQEDIATYFCQQDDTLPITFGAGTKVELKR",0.971 nM,6.92e-05 s⁻¹,71200 M⁻¹ s⁻¹
